# Assay: yeast display, Sf9 membrane polyspecificity reagent, FACS + sequencing; frameworks hold sequencing errors
# Method in brief: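 Genes from sorted yeast were amplified by colony PCR, read by MiSeq 2 × 250 sequencing and filtered on CDR length. These cells carried a synthetic nanobody library in Saccharomyces cerevisiae BJ5465 and were sorted by FACS into low and high (top ~1%) gates on anti-HA and streptavidin fluorescence. Polyreactivity is labelled according to the gate of origin.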
row,Sequence,polyreactivity (PSR sort gate)
1,QVQLVESGGGLVQEGGSLRLSCAASGLTFFPYAMGWYRQAPGKERELVAAITTSDGTTYYADSVKGRFTISRDNAKNTVYLQMNSLKPEDTAVYYCAAVYSPRSVWWYDYWGQGTEVTVSS,low polyreactivity
2,QDQLVESGGGLVQAGRSLRLSCAASGRIFYYNAMGWYRQAPGKERELVAAISYTDDSTYADSVKGRFTISRDNAKNTVYLQLNSLKPEDTAVYYCAADAVAYIYGYDYDYWGQGTQVTVSS,low polyreactivity
3,QVQLVESGGGLVQAGGSLRLSCAASGSIFRYYDMGWYRQAPGKERELVAAISWSGGTTYYADSVKGRFTISRDNAKNTVYLQMNSLKPEDTAVYYCNRVRYPSYDYWGQGTQVTVSS,high polyreactivity
4,QVQLEESGGGLVQAGGSLRLSCAASGSTFVYYPMGWYRQATGKERELVAVISDDGGTYYADSVKGRFTISRDNAKNTVYLQMNSLKPEDTAVFYCAKDYYGGAFYWYNDRSGDYWGQGTQVTVSS,low polyreactivity
5,QGQLGESGGGLVQAGGSLRLSCAASGSNFSSNAMGWYRQAPWKERELVAAISSGGSTNYADSVKGRFTISRDNAKNTVYLQMNSLKPEDTAVYYCAADTSTGVYTPYAFEFDWGQGTQVTVSS,low polyreactivity
6,QVQLVDSGGGLVQAGGSLRLSCAASGSTFAFYAMVWSRQAPGKERELVAANSSNGVSTYYADSVKGRFTISRDNAKNTVYLQMKSLKPEDTAVYYCARDVYASPRLYTSRYNYWGQGTQVTVSS,low polyreactivity
7,QVQLVESGGGLVQAGGSLRLRCAASGFTFYHYAMGWYRQAPGKERELVAAITWSGGDTYYADSVKGRFTISRDNAKNTVYLQMNSLKPEDTAVYYCNADDPPGAPYYDSFDYRGDYWGQGTQVTVSS,low polyreactivity
8,QVQLVESGGGLVQAGGSLRLSCAASGFIFIKYAMGWYRQAPGKERELVAAISSSGGSTYYADSVKGRFTISRDNAKNTVYLQMNSLKPEDTAVYYCAARGTWSRYGYWGQGTQVTVSS,high polyreactivity
9,QVQLVESGGGLVQAGGSLRLSCAASGRNFNFNTIGWYRQAAGKEREFLAAITFRGVRTYYADSVKGRFTISRDNAKNTVYLQMISLKPEDTAVYYCATQARLYGGYDRYAGSYDYWGQGTQVTVSS,high polyreactivity
10,QVQLVESGGGLVQAGGSLRISSPASGSIFTLYDMGWYRQAPGKERELVSAITEDGASTYYADSVKGRFTISRDIAKNTVYLQMNSLKPEDTAYYYCAAHPTYWPVWYVLYDYWGQGTQVTLSS,low polyreactivity
11,QVQLVESGGGLVQAGGSLRLSCAASGSNSVYNAMGWYRQAPGKERELVAAISWSGGRTSYADSVKGRFTISRDNAKNTVYLQMNSLKPEDTAVYYCAADELTVLWDEDYWGQGTQVTVSS,low polyreactivity
12,QVQLVESGGGLVQAGGSLRLSCAASGITFGPYAMGWYRQAPGKERELVAAISSGGRTNYADSVKGRFTISRDNAKNTVYLQMNSLKPEDTAVYYCAARFAYFREYGTYYYWGQGTQVTVSS,high polyreactivity
13,QVQLVESGGGLVQAGGSLRLSCAASGSIFGYYSMGCYRQAPGKERELVATITFGGGSTYYADSVKGRFTISRDNAKNTVYLQMNSLKPEDTAVYYCAADSGYLGFYGDEYSWGQGTQVTVSS,low polyreactivity
14,QVQLVESGGGLVQAGGSLRLSCAASGFTFWYYAMGWYRQAPGKERELVAAISSGSSTNYADSVKGRFTISRDNPKNTVYLQMNSLKPEDTAVDYCAADKYPSSPYVGDVDYWGQGTQVTVSS,high polyreactivity
15,QVQLVESGGGLVQAGGSLRLSCAASGRIFSYYAMGWYRQAPGKERELVAAINWSGSSTYYADSVKGRFTISRDNAKNTVYLQMNSLKPEDTAVYYCAAGVPKNGQAGYDYWGQGTQVTVSS,high polyreactivity
16,QVQLVESGGGLVQAGGSLRLSCAASGSTFTDNAMGWYRQAPGKETELVAAINGSGDITYYADSVKGRFTISRDYAKNTVYLQMKSLKPEDTAVYYCATRTQYKTWYGAYYYWGQGTQVTVSS,low polyreactivity
17,QVQLVESGGGLVQAGGSLRLSCAASGSIFSSYAKGWYLQAPGKERELVAAISQSGGDTYYADSVKGRFTISRDNAKNTVYLEMNSLKPEDSAVYYCAASVWYYPMDYWGQGSQVTVSS,low polyreactivity
18,QVQLVESGGGLVQAGGSLRLSCAASGFIFPGYAMGWYRQAPGKERELVAAISWSGGRTYYADSVKGRFTISRDNAKNTVYLQMNSLKPEDTAVYYCNARYRQITYEYDYWGQGTQVTVSS,high polyreactivity
19,QVQLVESGGGLVQAGGSLRLSCAASGRTFGRYAMGWYRQAPGKERELVAAINKNGGSTFYADSVKGRFTISRDNAKNTVYLQMNSLKPEDTAVYYCNRTAYVRGYPPWGYDYWGQGTQVTVSS,low polyreactivity
20,QVQLVESGGGLVQAGGSLRLSCAASGSTFGRYAMVWYRQAPGKEREFVAGITGRGGSTYYADSVKGRFTISRDNAKNTVYLQMKSLKPEVNAVYYSAAGYRVGYRYDYWGQCTQVTVSS,high polyreactivity

row,Sequence,polyreactivity (PSR sort gate)
1,QVQHVESGGGLVQAGGSLRLSCAASGRIFGSYAMVGYIQAPGKETELDAAIRWSGGNTYYADSVKGRFTITRDNAKNTVYFQMNSLKPEDTAVYYCNARTARSYSKTSYRFSSYNYWGQGTQVTVSS,high polyreactivity
2,QVQLVESGGGLVQAGGSLRLSCAASGYIPYCYAMGWYRQAPGKERELVAAISSGGNTYYADSVKGRFTISRDNAKNTVYLQMNSLKPEDTAVYYCAAEFRNYIFHYKYNYWGQGTQVTVSS,high polyreactivity
3,QVQLVESGGGLVQAGGSLRLSCAASGFTFPYYTMGWYRQAPGKERELVAAITSSGGSTYYADSVKGRFTISRDNAKNTVYLQMNSLKPEDTAVYYCNAAVYAHRYIYGFDYWGQGTQVTVSS,high polyreactivity
4,QVQLVESGGGLVQAGGSLRLSCAASGRIFNPYAMGWYRQAPGKERELVAAISRGGRTYYADSVKGRFTISRDNAKNTVYLQMNSLKPEDTAVYYCNAGRGLREDDYWGQGTQVTVSS,low polyreactivity
5,QVQLVESGGGLVQAGGSLRLSCAASARIYDLNAMGWYRQAPGKERELVAAITWSGDSTYYADSVKGRFTISRDTAKNTVYLQMNSLKPEDTAVYYCAAASRTSYSWVDYEFDYWGQGTQVTVSS,low polyreactivity
6,QVQLVESGGGLVQAGGSLRLSCAASGITFGNYAMGWYRQAPGKERELVAAISQSSGRTYYADSVKGRFTISRDNAKNTVYLQMNSLKPEDTAVYYCAARTRGSSRGDYDYWGQGTQVTVSS,high polyreactivity
7,QVQLVESGGGIVQAGGSLRLRCAASGYTFEDNDMGLYRQAPGKERELVAAISVNGGSTYYADSVKGRFTISRDNAKKTVYLQMNSLKPVDTAVFYCNVDTLIGSLYGYDYWGQGTQVTVSS,high polyreactivity
8,QVQLVESGGGLVQAGASRRLSCAASGSNFASYAMGWYRQAPGKERELVAAITRRGGSTDYADSVKGRFTISRDNEKYTVDLHMNLLKPEDTAVYYCPTYSYPERTGGQRTHYYWGQGTQVTVSS,high polyreactivity
9,QVQLVESGGGLVQAGGILRLSCAAYGSIFPHNAMGWYRQAPGKERELVASITSRGGITYYADSVKGRFTISRDNAKNTGYLQMNSLIPEDTAVYYCAGDLYIYPYDYWGQGTQVTVSS,low polyreactivity
10,QVQLVESGGGLVQAGGSLRLSCAPSGSIFLQYTMGWYRQAPGKERELVAAITESDGSTYYADSVKGRFTISRDNAKNTVYLQMNSLKPEDTAVYYCAADVVYFKYWDKYDYWGQGTQVTVSS,low polyreactivity
11,QVQLQESGGGLVQARGSLRLSCAASGTILYSLGMGWYRQAPGKRREFVASITWGTTTNYAESVKGRFTISRDNAKNTVYPQMNSLKPEDTAVYYCAAPPFGDSSYHYWRQGTQVTVSS,low polyreactivity
12,QVQLVESGGGLVQAGGSLRLSCAASGSTFTWYAMGWNRQAPGKERELVADITWRDGSTYYADSVKGRFTISRDNAKNTVYLQMNSLKPEDTAVYYCNARRDYDMDWGQGTQVTVSS,high polyreactivity
13,QVQLVESGGGLVQAGGSLRLSCAASGLIFSRNAMGWYRQAPGKERELVAAISGGGGSTYYADSVKGRFTISRDNAKNTVYLQMNSLKPEDTAVYYCAAKGYWWRTPWIATYDYWGQGTQVTVSS,high polyreactivity
14,QVQLVESGGGLVQAGGSLRLSCAASGFTFDYYAMGWYRQAPGKERELVAAITSGSITYYADSVKGRFTISRDNAKNTVYLQMNSLKPEDTAVYSCAAVGLVRYGYWGQGTQVTVSS,high polyreactivity
15,QVQLVESGGGLVQAGGSLRLSCAASGFIFSSYAMGWYRQAPGKERELVASTSRRAGRTYYADSVKGRFTISRDNAKNTVYVQMNSLKPEDSAVYYCAAEARVGYHFQILDYWGQGTQVTVSS,high polyreactivity
16,QVQLVESGGGLVQAGGSLRLSCAASGSTFWNYAMGWYRQAPGKERELVAAITRGSSTNYADSVKGRFTISRDNAKNTVYLQMNSLKPEDTAVYYCANPVGRWSAFYYWGQGTQVTVSS,high polyreactivity
17,QVQLVESGGGLDQAGGSLRLICASSGRTFYPNAMGWYRQAPGKEREFVAAITWSGGGTFYADSVKGRFTISRDHAKNTVYLQMLSLNPEDTAVYYCAARLDTYQTQSVITPAALYYWGQGTQETVSS,low polyreactivity
18,QVQLVESGGGLVQAGGSLRLSCSASGSIFRSNAIGWYRQAPGKERELGAAISWSNDSTYYADSVKGRFTISRDNAKNTVYLQMNSLKPEDSAVYYCAAVGSGRYSGYDFLGQGTQVTVSS,high polyreactivity
19,QLQLVESGGGLVQAGGSLRLSCAASGRTLQWSTMGGYRQAPGKERELVAVISKSGGRTYYADSVKGRFTISRDNAKNTVYLQMNSLKPEDTAVYYCNTPHRSSSVRSYGYWGQGTQVTVSS,high polyreactivity
20,QVQLVESGGGLVQAGGSLRLICAASGSIFNAYAMGWYRQAPGKEREFVAAITGGGTYYADSVKGRFTISRDNAKNTVYLQMNSLKPEDTAVYYCNADYGTSRHTFWDYESWGQGTQVTVSS,low polyreactivity

# Source: the nanobody polyreactivity screen of Harvey et al. (2022)
